Reference: patent publication US20150344570A1 (published 2015)

T1: FcγRIIa H (human, UniProt P12318 34-217)
T1 construct: extracellular domain; also called FcgRIIa H; 2aH; not shown: His tag attached to the C terminus
T1 sequence (looked up): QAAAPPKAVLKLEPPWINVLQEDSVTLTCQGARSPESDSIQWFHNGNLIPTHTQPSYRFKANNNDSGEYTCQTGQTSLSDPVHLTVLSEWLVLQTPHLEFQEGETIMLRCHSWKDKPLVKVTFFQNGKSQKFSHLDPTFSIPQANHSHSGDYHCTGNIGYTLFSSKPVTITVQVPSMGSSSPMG

T2: FcγRIIb (human, UniProt P31994 43-217)
T2 construct: extracellular domain; also called FcgRIIb; 2b; not shown: His tag attached to the C terminus
T2 sequence (looked up): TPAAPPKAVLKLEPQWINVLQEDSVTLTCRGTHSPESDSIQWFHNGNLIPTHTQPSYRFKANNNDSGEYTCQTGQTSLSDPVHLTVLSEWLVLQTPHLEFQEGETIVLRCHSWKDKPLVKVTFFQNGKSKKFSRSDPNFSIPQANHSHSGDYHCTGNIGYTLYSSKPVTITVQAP

B1: GpH7-A5/GpH7-B3 variant D265_02A/GpL16-k0 (antibody, human IgG1, kappa)
heavy 1: not shown
heavy 2: not shown
light: DIVMTQSPLSLPVTPGEPASISCQASESLVHSNRNTYLHWYLQKPGQSPQLLIYKVSNRFSGVPDRFSGSGSGTDFTLKISRVEAEDVGVYYCSQNTHVPPTFGQGTKVEIERTVAAPSVFIFPPSDEQLKSGTASVVCLLNNFYPREAKVQWKVDNALQSGNSQESVTEQDSKDSTYSLSSTLTLSKADYEKHKVYACEVTHQGLSSPVTKSFNRGEC
notes: Heterodimerized anti-glypican-3 IgG1; mutation in one H chain only; also called He Ab
B2: GpH7-A5/GpH7-B3 variant D265_03V/GpL16-k0 (antibody, human IgG1, kappa)
heavy 1: not shown
heavy 2: not shown
light: B1 light
notes: as for B1
B3: GpH7-A5/GpH7-B3 variant D265_07I/GpL16-k0 (antibody, human IgG1, kappa)
heavy 1: not shown
heavy 2: not shown
light: B1 light
notes: as for B1
B4: GpH7-A5/GpH7-B3 variant D265_11K/GpL16-k0 (antibody, human IgG1, kappa)
heavy 1: not shown
heavy 2: not shown
light: B1 light
notes: as for B1
B5: GpH7-A5/GpH7-B3 variant G236_16H/GpL16-k0 (antibody, human IgG1, kappa)
heavy 1: not shown
heavy 2: not shown
light: B1 light
notes: as for B1
B6: GpH7-A5/GpH7-B3 variant G236_19Q/GpL16-k0 (antibody, human IgG1, kappa)
heavy 1: not shown
heavy 2: not shown
light: B1 light
notes: as for B1
B7: GpH7-A5/GpH7-B3 variant G236_20W/GpL16-k0 (antibody, human IgG1, kappa)
heavy 1: not shown
heavy 2: not shown
light: B1 light
notes: Heterodimerized anti-glypican-3 IgG1; mutation in one H chain only; also called He Ab; GpH7-A5/GpH7-B3-03-20W/GpL16-k0
B8: GpH7-A5/GpH7-B3 variant D265_15Y/GpL16-k0 (antibody, human IgG1, kappa)
heavy 1: not shown
heavy 2: not shown
light: B1 light
notes: as for B1
B9: GpH7-A5/GpH7-B3 variant H268_06M/GpL16-k0 (antibody, human IgG1, kappa)
heavy 1: not shown
heavy 2: not shown
light: B1 light
notes: as for B1
B10: GpH7-A5/GpH7-B3 variant D265_04F/GpL16-k0 (antibody, human IgG1, kappa)
heavy 1: not shown
heavy 2: not shown
light: B1 light
notes: as for B1
B11: GpH7-A5/GpH7-B3 variant D265_06M/GpL16-k0 (antibody, human IgG1, kappa)
heavy 1: not shown
heavy 2: not shown
light: B1 light
notes: as for B1
B12: GpH7-A5/GpH7-B3 variant D265_19Q/GpL16-k0 (antibody, human IgG1, kappa)
heavy 1: not shown
heavy 2: not shown
light: B1 light
notes: as for B1
B13: GpH7-A5/GpH7-B3 variant H268_08L/GpL16-k0 (antibody, human IgG1, kappa)
heavy 1: not shown
heavy 2: not shown
light: B1 light
notes: as for B1
B14: GpH7-A5/GpH7-B3 variant D265_18N/GpL16-k0 (antibody, human IgG1, kappa)
heavy 1: not shown
heavy 2: not shown
light: B1 light
notes: as for B1
B15: GpH7-A5/GpH7-B3 variant D265_20W/GpL16-k0 (antibody, human IgG1, kappa)
heavy 1: not shown
heavy 2: not shown
light: B1 light
notes: as for B1
B16: GpH7-A5/GpH7-B3 variant D265_13S/GpL16-k0 (antibody, human IgG1, kappa)
heavy 1: not shown
heavy 2: not shown
light: B1 light
notes: as for B1
B17: GpH7-A5/GpH7-B3 variant D265_16H/GpL16-k0 (antibody, human IgG1, kappa)
heavy 1: not shown
heavy 2: not shown
light: B1 light
notes: as for B1

Molecular target: T1, FcγRIIa H
Experiment: SPR; He/Con for FcγRIIa H divided by He/Con for FcγRIIb

He_2aH/2b (IIaH/IIb)	Binder
1.58 ratio	B1
1.42 ratio	B2
2.35 ratio	B3
1.87 ratio	B4
3.51 ratio	B5
1.91 ratio	B6
2.52 ratio	B7
6.07 ratio	B8
1.29 ratio	B9
1.28 ratio	B10
1.35 ratio	B11
1.43 ratio	B12
1.25 ratio	B13
2.01 ratio	B14
2.86 ratio	B15
1.75 ratio	B16
1.27 ratio	B17

Molecular target: T1, FcγRIIa H
Experiment: SPR (Biacore), antibody captured on antigen peptide chip, FcγR as analyte; relative binding activity
Method: (§1) The heterodimerized antibodies He Abs in which one of the H chains was introduced with an alteration were assayed for their binding activities to each activating FcγR and inhibitory FcγR according to the method described in Example 4. […] The activating FcγRs in FIGS. 26, 27, 28, and 29 are FcγRIa, FcγRIIa (R), FcγRIIa (H), and FcγRIIIa, respectively.
(§2) Analysis of interaction between objective antibody and the FcγR was carried out using Biacore T100 (GE Healthcare). HBS-EP+ (GE Healthcare) was used as the running buffer, and the measurement temperature was set to 25° C. Chips produced by immobilizing the antigen peptide by the amine coupling method to a Series S Sencor Chip CM5 (GE Healthcare), or alternatively, chips produced by allowing preliminarily biotinylated antigen peptides to interact with and immobilize onto a Series S Sensor Chip SA (certified) (GE Healthcare) were used. Antibodies of interest were captured onto an antigen peptide-immobilized chip, and allowed to interact to each FcγR diluted with running buffer. To regenerate and repeatedly use the chip, the antibodies captured on the chip were washed off by reacting 10 mM glycine-HCl, pH 1.5.

He/Con_2aH	Binder
31.3 % of GpH7-A5/GpH7-B3/GpL16-k0 (=100)	B1
4.6 % of GpH7-A5/GpH7-B3/GpL16-k0 (=100)	B2
3.1 % of GpH7-A5/GpH7-B3/GpL16-k0 (=100)	B3
27.8 % of GpH7-A5/GpH7-B3/GpL16-k0 (=100)	B4
98.2 % of GpH7-A5/GpH7-B3/GpL16-k0 (=100)	B5
89.1 % of GpH7-A5/GpH7-B3/GpL16-k0 (=100)	B6
147 % of GpH7-A5/GpH7-B3/GpL16-k0 (=100)	B7
3.7 % of GpH7-A5/GpH7-B3/GpL16-k0 (=100)	B8
84.8 % of GpH7-A5/GpH7-B3/GpL16-k0 (=100)	B9
4.1 % of GpH7-A5/GpH7-B3/GpL16-k0 (=100)	B10
13.5 % of GpH7-A5/GpH7-B3/GpL16-k0 (=100)	B11
47.7 % of GpH7-A5/GpH7-B3/GpL16-k0 (=100)	B12
85 % of GpH7-A5/GpH7-B3/GpL16-k0 (=100)	B13
12.4 % of GpH7-A5/GpH7-B3/GpL16-k0 (=100)	B14
3.2 % of GpH7-A5/GpH7-B3/GpL16-k0 (=100)	B15
19.8 % of GpH7-A5/GpH7-B3/GpL16-k0 (=100)	B16
48.6 % of GpH7-A5/GpH7-B3/GpL16-k0 (=100)	B17

Molecular target: T2, FcγRIIb
Experiment: as above
Method: as §1, §2

He/Con_2b	Binder
19.9 % of GpH7-A5/GpH7-B3/GpL16-k0 (=100)	B1
3.2 % of GpH7-A5/GpH7-B3/GpL16-k0 (=100)	B2
1.3 % of GpH7-A5/GpH7-B3/GpL16-k0 (=100)	B3
14.9 % of GpH7-A5/GpH7-B3/GpL16-k0 (=100)	B4
27.9 % of GpH7-A5/GpH7-B3/GpL16-k0 (=100)	B5
46.6 % of GpH7-A5/GpH7-B3/GpL16-k0 (=100)	B6
58.2 % of GpH7-A5/GpH7-B3/GpL16-k0 (=100)	B7
0.6 % of GpH7-A5/GpH7-B3/GpL16-k0 (=100)	B8
65.7 % of GpH7-A5/GpH7-B3/GpL16-k0 (=100)	B9
3.2 % of GpH7-A5/GpH7-B3/GpL16-k0 (=100)	B10
10 % of GpH7-A5/GpH7-B3/GpL16-k0 (=100)	B11
33.4 % of GpH7-A5/GpH7-B3/GpL16-k0 (=100)	B12
67.8 % of GpH7-A5/GpH7-B3/GpL16-k0 (=100)	B13
6.1 % of GpH7-A5/GpH7-B3/GpL16-k0 (=100)	B14
1.1 % of GpH7-A5/GpH7-B3/GpL16-k0 (=100)	B15
11.3 % of GpH7-A5/GpH7-B3/GpL16-k0 (=100)	B16
38.3 % of GpH7-A5/GpH7-B3/GpL16-k0 (=100)	B17
